The target of test [1] is T1, human TMEM106B (human, UniProt Q9NUM4 2-274).
T1 construct: Full-length, on transiently transfected HEK293 cells, or natively expressed on HeLa, U251 and A549 cells; also called huTMEM106B; huTMEM
As to the kind of experiment: FACS A549, 10 ug/ml.
Description: (§1) Purified anti-TMEM106B antibodies were evaluated for their binding affinity to various TMEM106B-expressing cell lines including HEK293 transiently transfected with human/cyno/mouse TMEM106B, as well as HeLa cells and A549 cells. Antibodies tested for this experiment were mouse IgGs purified from hybridoma supernatant. Affinity binding to cells was determined as follows. Briefly, 1x10^5 cells were aliquoted per well in 96-well round bottom plates and incubated with 50 µL of purified anti-TMEM106B antibody at various concentrations (10x dilutions starting at 10 µg/ml) in FACS buffer (PBS + 2% FBS + 1 mM EDTA). […] Sorting was performed on a iQue (Intellicyt), with sort gates drawn to exclude dead (propidium iodide +) cells. Binding data was analyzed using median fluorescent intensity (MFI) and graphed in Prism. Values presented are MFI.

Test [2] deals with T1, human TMEM106B. Briefly: FACS A549, 1 ug/ml.
Description: as §1
For test [3], the target named is T1, human TMEM106B. Briefly: FACS HEK+huTMEM, 0.1 ug/ml.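 Note: flow cytometry binding of purified mouse IgG antibodies to HEK293 cells transiently expressing TMEM106B, read as median fluorescence intensity with propidium iodide positive dead cells gated out.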
Test [4] deals with T1, human TMEM106B. As to the kind of experiment: FACS, HEK293 transfectants.
Description: Initial screening of the anti-TMEM106B hybridomas was performed as follows.
For screening of the hybridoma cell culture supernatants, humanTMEM106B-transfected HEK293 cells were aliquoted in 96-well round bottom plates (2x10^5 cells per well) and incubated with 50 µL of hybridoma cell culture supernatant on ice for 30 minutes. […] Cell sorting was performed on a FACS Canto system (BD Biosciences) or iQue (Intellicyt), with sort gates drawn to exclude dead (i.e., propidium iodide-positive) cells. Median fluorescence intensity (MFI) of anti-mouse-APC MFI on TMEM106B+ HEK293 cells was calculated for each clone, and those displaying a signal of at least 2-fold over background compared to a secondary-antibody only well were taken forward for further analysis and characterization.
The target of test [5] is T1, human TMEM106B. As to the kind of experiment: FACS HEK+huTMEM, 1.0 ug/ml.
The target in test [6] is T1, human TMEM106B. As to the kind of experiment: FACS HEK+huTMEM, 10 ug/ml.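 Note: purified mouse IgG antibodies at 10 µg/ml bound to HEK293 cells transiently expressing human TMEM106B, measured by flow cytometry as median fluorescence intensity of propidium iodide negative live cells.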
In test [7] the target is T1, human TMEM106B. Briefly: FACS HEK+huTMEM, 0.01 ug/ml.
The next test concerns the target T2, GST (Pierce) (UniProt P08515 1-218 = GST, limits assumed).
T2 construct: control for the GST part of the fusion protein; also called GST protein; Glutathione-S-transferase
Briefly: ELISA, coated GST.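 Note: ELISA on plates coated with GST alone at 1-10 µg/ml, antibodies applied at 100-1000x dilution, bound antibody detected by peroxidase substrate colour after acid stop.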

Test [8] concerns the target T3, GST-fusion human TMEM106B truncated (human).
T3 construct: also called GST-TMEM106B-truncated protein; GST-TMEM106B (truncated)
Briefly: array SPR, Ab immobilised.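 Note: antibodies amine-coupled on an MX-96 chip, antigen flowed at 500 nM top concentration in 5-fold serial dilutions, GST alone run as nonspecific-binding control, duplicate measurements.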
Description: Binding kinetic characterization of the purified antibodies was performed by Carterra using a proprietary array SPR instrument (MX-96) as follows. Briefly, antibodies were prepared by diluting to 5 µg/ml in 10 mM Acetate, pH 4.5 (Carterra), at 150 µL/well and then made an additional dilution at 1:10 from there by titrating 11 µl into 100 µL. […] The chip was activated with 18 mM EDC (Sigma Bioxtra) and 4.5 mM S-NHS (Thermo Fisher) diluted in 100 mM MES, pH 5.5, for 7 minutes, and then antibodies were coupled for 10 minutes at 45 µL/minute. After coupling, the chip was returned to the MX-96 and quenched for 7 minutes using 1 M Ethanolamine pH 8.5 (Carterra).
Printed antibodies were profiled for their ability to bind GST-TMEM106B (truncated) protein (described above). Briefly, GST-TMEM106B (truncated) antigen was diluted to 18 µg/ml (500 nM of 36 kDa fusion protein) by mixing 2.7 µL of 2.0 mg/ml antigen into 298 µL Running buffer (HBS-EP+, Teknova with 1 mg/ml BSA, Sigma), and titrated 50 µl into 200 µl for 5-fold serial dilutions. In addition, binding to GST (Pierce) was assayed under the same conditions to determine the extent of any nonspecific binding of the anti-TMEM106B antibodies to GST portion of the TMEM106B-GST fusion protein. Duplicate measurements for each anti-TMEM106B antibody were taken to ensure reproducibility.

For test [9], the target named is T1, human TMEM106B. As to the kind of experiment: FACS U251.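 Note: flow cytometry of cells exposed to antibody (purified at 10 µg/mL, or hybridoma supernatant) for 1 h on ice, with propidium iodide-positive dead cells gated out.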
Description: (§2) All cells were cultured in either T75 or T150 flasks. […] The enzyme was quenched by addition of fresh media, and the cells were then distributed into 96-well plates for FACS analysis.
(§3) FACS analysis was performed as follows. Each cell type was aliquoted in 96-well round bottom plates (2x10^5 cells per well), washed once with FACS buffer (PBS + 2% FBS + 1 mM EDTA), and incubated with 50 µL of hybridoma supernatant or purified antibody (10 µg/ml in FACS buffer) on ice for 1 hour. […] Following this secondary incubation, the cells were again washed 2x with ice-cold FACS buffer and resuspended in a final volume of 50 µL of FACS buffer + 0.25 µl/well propidium iodide (Fisher Scientific # BDB556463). Analysis was performed on a FACSCanto system (BD Biosciences) or iQue (Intellicyt), with sort gates drawn to exclude dead (i.e., propidium iodide positive) cells.
(§4) Data is presented as mean fluorescence intensity (MFI).
Test [10] has as its target T4, mouse TMEM106B (mouse, UniProt Q80X71 2-275).
T4 construct: on transiently transfected HEK293 cells, or natively expressed on mouse Neuro2a cells; also called moTMEM106B; murine TMEM106B
Briefly: FACS Neuro2a.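 Note: flow cytometry of cells stained with antibody or hybridoma supernatant (purified antibody at 10 µg/ml) for 1 h on ice, propidium iodide–positive dead cells gated out.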

In test [11] the target is T1, human TMEM106B. Briefly: FACS HeLa.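 Note: flow cytometry of cells incubated with hybridoma supernatant or purified antibody at 10 µg/ml for 1 h on ice, propidium iodide–positive dead cells gated out.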
For test [12], the target named is T1, human TMEM106B. Briefly: FACS A549.
Description: as §2, §3, §4
Test [13] deals with T5, cynomolgus (cyno) TMEM106B (cynomolgus, UniProt Q9NUM4 2-274 (human entry)).
T5 construct: on transiently transfected HEK293 cells
Briefly: FACS, HEK293 transfectants.
Description: (§5) For screening of the hybridoma cell culture supernatants, humanTMEM106B-transfected HEK293 cells were aliquoted in 96-well round bottom plates (2x10^5 cells per well) and incubated with 50 µL of hybridoma cell culture supernatant on ice for 30 minutes. […] Median fluorescence intensity (MFI) of anti-mouse-APC MFI on TMEM106B+ HEK293 cells was calculated for each clone, and those displaying a signal of at least 2-fold over background compared to a secondary-antibody only well were taken forward for further analysis and characterization.

The target in test [14] is T1, human TMEM106B. Briefly: FACS, HEK293 transfectants. This is another data set of the same source.
Description: as §5
Test [15] addresses T4, mouse TMEM106B. As to the kind of experiment: FACS, HEK293 transfectants.
Description: as §5

Residue numbers refer to the chain shown, from its start. “And” between values parts separate entries of the source, which are not always exact repeats. Identical values can stand only once. Where only a bound is given, the exact number is not on record here.
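Throughout, for fold over negative controls: hybridoma supernatants incubated 30 min on ice with human TMEM106B-expressing HEK293 cells, binding read as anti-mouse-APC median fluorescence on live cells, relative to secondary-antibody-only wells.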
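Throughout, for fold-change over parental HEK293: flow cytometry binding of hybridoma supernatants to HEK293 cells transiently expressing human, cyno or mouse TMEM106B, read as anti-mouse-APC median fluorescence, live cells only, 30 min on ice.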

B1: anti-TMEM106B antibody TM-30 (antibody, V domains shown)
VH: QVQLQQSGPELVKPGASVKLSCKASDNTFTNYDVNWVRQRPGQGLEWIGWIYPRDGTTIYNEKFKGRATLTVDTSSSTAYMELHSLTSEDSAVFFCARTLPQAMDYWGQGTSVTVSS
VL: DVLMTQSPLSLPVSLGDQVSISCRSSQTIVHRNGNTYLEWYLQKPGQSPKLLIYKVSNRFSGVPDRFSGSGSGTDFTLKISRVEAEDLGVYYCFQGSHLPWTFGGGTKLEIK
notes: mouse IgG from hybridoma
B1: the MFI stood at 4040 with human TMEM106B [1]; 3030 with human TMEM106B [2]; 18400 with human TMEM106B [3]; 63500 with human TMEM106B [5]; 61500 with human TMEM106B [6]; 3070 in the test with human TMEM106B [7]. In addition, the “fold over negative controls” value with human TMEM106B [4] is over 2 fold.

B2: anti-TMEM106B antibody TM-32 (antibody, V domains shown)
VH: EVQLQQSGAELVRPGASVRLSCIASGFNIKDYYMYWVKQRPEQGLEWIGRIDPEDGDTEYVPKFQGKATMTADTSSNTAYLQLSSLTSEDIGVYYCTTRTWDLYYAVDNWGQGTSVTVSS
VL: B1 VL with S7T, V19A, T28N, R32S, Y54D, V90I, L99V, W101F, G105S
As for B2, the MFI in the test with human TMEM106B [1] was 6100; in the test with human TMEM106B [2], 3930; with human TMEM106B [3], 20300; with human TMEM106B [5] it was 63300; with human TMEM106B [6], 61100; in the test with human TMEM106B [7], 4100. For the same molecule, the “fold over negative controls” value with human TMEM106B [4] was over 2 fold. Besides, in the test with GST (Pierce), the binding result was “no binding”. Further, in [8], the koff was 8.6e-05 s⁻¹ and 3.5e-05 s⁻¹. In test [8], the kon was 29000 M⁻¹ s⁻¹ and 40000 M⁻¹ s⁻¹.

B3: anti-TMEM106B antibody TM-44 (antibody, V domains shown)
VH: EVQLVESGGGLVKPGGSLKLSCAASGFTFSDYGMHWVRQAPEKGLEWVAYISSGSSTIYYADTVKGRFTISRDNAKNTLFLQMTSLRSEDTAMYYCARNYGSPYAMDYWGQGTSVTVSS
VL: not shown
notes: mouse IgG from hybridoma
Take B3: the MFI in the test with human TMEM106B [1] was 466; in the test with human TMEM106B [2], 404; with human TMEM106B [9], 522; with human TMEM106B [3] it was 309; with mouse TMEM106B [10] it was 202; in the test with human TMEM106B [11], 168. In addition, the MFI in the test with human TMEM106B [12] amounted to 392; with human TMEM106B [5] it was 337; with human TMEM106B [6], 512; with human TMEM106B [7], 300.

B4: anti-TMEM106B antibody TM-17 (antibody, V domains shown)
VH: QVQLQQSGAELIRPGTSVKVSCKASGYAFTDYLIEWVKQRPGQGLEWIGVINPGSGGTNYNEKFKGKAKLTADKSSSTAYMQLSSLTSEDSAVYFCVRSSYGVYVAYPMDYWGQGTSVTVSS
VL: DIQMTQSPSSLSASLGERVSLTCRASQDIGSNLNWLQQEPDGTIKRLIYATSSLDSGVPKRFSGSRSGSDYSLTISSLESEDFVDYYCLQYASSPRTFGGGTKLEIK
Consider B4, for which the MFI in the test with human TMEM106B [1] is 425; with human TMEM106B [2], 379; with human TMEM106B [9], 305; with human TMEM106B [3], 1910; in the test with mouse TMEM106B [10], 385; with human TMEM106B [11], 437. Also, the MFI with human TMEM106B [12] stood at 953; with human TMEM106B [5], 2620; in the test with human TMEM106B [6] it was 3960; in the test with human TMEM106B [7] it was 1150. Moreover, the “fold over negative controls” value in the test with human TMEM106B [4] was over 2 fold. Besides, the binding result with GST (Pierce) was “no binding”. Moreover, in test [8], the Kd was 22 nM and 28 nM. The koff in [8] is 0.00063 s⁻¹ and 0.00097 s⁻¹. Moreover, the kon in test [8] was 29000 M⁻¹ s⁻¹ and 35000 M⁻¹ s⁻¹. For the same molecule, the “fold-change over parental HEK293” value is 14.3 fold in test [13], 12.6 fold in the test with human TMEM106B [14] and 6.42 fold with mouse TMEM106B [15].

B5: anti-TMEM106B antibody TM-24 (antibody, V domains shown)
VH: QVQLKQSGPGQVQPSQSLSITCTVSGFSLSDYGVHWVRQSPGKGLEWLGVIWNNGNTDYNAAFISRLSINKDNSKSQVFFKMTSLQADDTAIYYCVRSLRPLHFDYWGQGTTVTVSS
VL: DIVMTQSPSSLTMSVGQKVTMNCKSSQSLLNSNNQQNYLAWYQQKPGQSPKLLVYFASIRESGVPDRFIGSGSGTDFTLTINSVQAEDLADYFCQQHYSTPFTFGSGTKLEIR
notes: mouse IgG from hybridoma
Consider B5, for which the MFI in the test with human TMEM106B [1] was determined as 4480; with human TMEM106B [2] it was 2880; in the test with human TMEM106B [3] it was 22000; in the test with human TMEM106B [5], 64500; in the test with human TMEM106B [6] it was 66300; with human TMEM106B [7], 3620. The “fold over negative controls” value with human TMEM106B [4] was over 2 fold.

B6: anti-TMEM106B antibody TM-16 (antibody, V domains shown)
VH: EVQLQQSGAELVRPGASVKLSCTTSGFNIKDYYMHWVKQRTEQGLEWIGRIDPEDGETKYAPEFQGKATITSDTSSNTAFLQLSSLTSEDTAVYYCASSQPFTYWGQGTLVTVSA
VL: QIVLTQSPAIMSASPGEKLTMTCSASSSLNYMYWYQQKPGSSPRLLIYDTSNLASGVPVRFSGSGSGTSYSLTISRMEAEDGATYYCQQWTSFPPTFGAGTKLELK
Turning to B6, the MFI in the test with human TMEM106B [1] was 557; with human TMEM106B [2], 409; in the test with human TMEM106B [9] it was 292; in the test with human TMEM106B [3] it was 680; with mouse TMEM106B [10] it was 392; in the test with human TMEM106B [11], 548. In addition, the MFI came out at 605 in the test with human TMEM106B [12], 2140 with human TMEM106B [5], 5980 in the test with human TMEM106B [6] and 351 with human TMEM106B [7]. In addition, the “fold over negative controls” value with human TMEM106B [4] is over 2 fold. In the test with GST (Pierce), the binding result was “no binding”. Further, the results for the “fold-change over parental HEK293” value (in test [13]; with human TMEM106B [14]; with mouse TMEM106B [15]) were 17.6 fold, 8.3 fold and 1.42 fold, respectively.

B7: anti-TMEM106B antibody TM-20 (antibody, V domains shown)
VH: B6 VH
VL: B6 VL with S62R
B7: the binding result in the test with GST (Pierce) is listed as “no binding”.

B8: anti-TMEM106B antibody TM-10 (antibody, V domains shown)
VH: QVQLQQSGAELVKPGASVKISCKGSGYAFSSYWMNWVKQRPGKGLEWIGQIYPGDGDTNYNGKFKGKATLTADKSSTTAYIHLSSLTSEDSAVYFCARWGHYDEAMDDWGQGTSVTVSS
VL: DVVMTQTPLSLPVSLGDQASISCRSSQSLVHSNGKTYLHWYVQKPGQSPKLLIYKISNRFSGVPDRFSGSGSGTDFTLKISRVEAEDLGVYFCSQITHVPWTFGGGTKLESK
Regarding B8, the MFI stood at 1090 with human TMEM106B [1]; 663 with human TMEM106B [2]; 328 in the test with human TMEM106B [9]; 21000 in the test with human TMEM106B [3]; 604 with mouse TMEM106B [10]; 596 with human TMEM106B [11]. In addition, the MFI in the test with human TMEM106B [12] stood at 823; with human TMEM106B [5] it was 44400; with human TMEM106B [6], 36500; in the test with human TMEM106B [7], 3360. Also, the “fold over negative controls” value with human TMEM106B [4] is over 2 fold. Also, the binding result in the test with GST (Pierce) was “no binding”. In addition, the Kd in test [8] was 17 nM and 22 nM. Further, the koff in [8] is 0.00054 s⁻¹ and 0.0006 s⁻¹. For the same molecule, the kon in test [8] is 32000 M⁻¹ s⁻¹ and 28000 M⁻¹ s⁻¹. The “fold-change over parental HEK293” value in [13] turned out to be 65.9 fold; in the test with human TMEM106B [14], 37.1 fold; with mouse TMEM106B [15] it was 45.9 fold.

Source of the values: patent US20230303681A1 (published 2023).
